Measurements reported in US20240376208A1 (AFFIMED, published 2024).

T1: BCMA on MM.1S target cells (UniProt Q02223 1-184, limits assumed)
T1 sequence (looked up): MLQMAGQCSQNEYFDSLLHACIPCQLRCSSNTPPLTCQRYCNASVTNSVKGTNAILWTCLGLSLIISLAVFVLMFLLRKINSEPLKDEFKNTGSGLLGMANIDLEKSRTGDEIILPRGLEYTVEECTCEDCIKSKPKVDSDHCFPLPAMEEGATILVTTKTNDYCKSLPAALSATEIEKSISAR

B1: aBi-scDb-Fc_01 (bispecific antibody)
chain 1: SYVLTQPSSVSVAPGQTATISCGGHNIGSKNVHWYQQRPGQSPVLVIYQDNKRPSGIPERFSGSNSGNTATLTISGTQAMDEADYYCQVWDNYSVLFGGGTKLTVLGGSGGSQVQLVQSGAEVKKPGESLKVSCKASGYTFTSYYMHWVRQAPGQGLEWMGAIEPMYGSTSYAQKFQGRVTMTRDTSTSTVYMELSSLRSEDTAVYYCARGSAYYYDFADYWGQGTLVTVSSGGSGGSGGSGGSGGSGGSSYVLTQPSSVSVAPGQTATISCGGHNIGSKNVHWYQQRPGQSPVLVIYQDNKRPSGIPERFSGSNSGNTATLTISGTQAMDEADYYCQVWDNYSVLFGGGTKLTVLGGSGGSQVQLVQSGAEVKKPGESLKVSCKASGYTFTSYYMHWVRQAPGQGLEWMGAIEPMYGSTSYAQKFQGRVTMTRDTSTSTVYMELSSLRSEDTAVYYCARGSAYYYDFADYWGQGTLVTVSSGGGGSDKTHTCPPCPAPEFEGGPSVFLFPPKPKDTLMISRTPEVTCVVVAVSHEDPEVKFNWYVDGVEVHNAKTKPREEQYNSTYRVVSVLTVLHQDWLNGKEYKCKVSNKALPAPIEKTISKAKGQPREPQVYTLPPSREEMTKNQVSLTCLVKGFYPSDIAVEWESNGQPENNYKTTPPVLDSDGSFFLTSKLTVDKSRWQQGNVFSCSVMHEALHNHYTQKSLSLSPGAAAGSHHHHHH
chain 2: SYVLTQPSSVSVAPGQTATISCGGHNIGSKNVHWYQQRPGQSPVLVIYQDNKRPSGIPERFSGSNSGNTATLTISGTQAMDEADYYCQVWDNYSVLFGGGTKLTVLGGSGGSQVQLVQSGAEVKKPGESLKVSCKASGYTFTSYYMHWVRQAPGQGLEWMGAIEPMYGSTSYAQKFQGRVTMTRDTSTSTVYMELSSLRSEDTAVYYCARGSAYYYDFADYWGQGTLVTVSSGGSGGSGGSGGSGGSGGSSYVLTQPSSVSVAPGQTATISCGGHNIGSKNVHWYQQRPGQSPVLVIYQDNKRPSGIPERFSGSNSGNTATLTISGTQAMDEADYYCQVWDNYSVLFGGGTKLTVLGGSGGSQVQLVQSGAEVKKPGESLKVSCKASGYTFTSYYMHWVRQAPGQGLEWMGAIEPMYGSTSYAQKFQGRVTMTRDTSTSTVYMELSSLRSEDTAVYYCARGSAYYYDFADYWGQGTLVTVSSGGGGSDKTHTCPPCPAPEFEGGPSVFLFPPKPKDTLMISRTPEVTCVVVAVSHEDPEVKFNWYVDGVEVHNAKTKPREEQYNSTYRVVSVLTVLHQDWLNGKEYKCKVSNKALPAPIEKTISKAKGQPREPQVYTLPPSREEMTKNQVSLYCLVKGFYPSDIAVEWESNGQPENNYKTTPPVLDSDGSFFLYSKLTVDKSRWQQGNVFSCSVMHEALHNHYTQKSLSLSPGGGGGSGGGGSEVQLLESGGGLVQPGGSLRLSCAASGFTFSNYDMAWVRQAPGKGLEWVSSISTRGDITSYRDSVKGRFTISRDNSKNTLYLQMNSLRAEDTAVYYCARQDYYTDYMGFAYWGQGTLVTVSSGGGGSGGGGSGGGGSAIQMTQSPSSLSASVGDRVTITCRASEDIYNGLAWYQQKPGKAPKLLIYGASSLQDGVPSRFSGSGSGTEFTLTISSLQPEDEATYYCAGPHKYPLTFGGGTKVEIK
B2: aBi-scDb-Fc_03 (bispecific antibody)
chain 1: DKTHTCPPCPAPEFEGGPSVFLFPPKPKDTLMISRTPEVTCVVVAVSHEDPEVKFNWYVDGVEVHNAKTKPREEQYNSTYRVVSVLTVLHQDWLNGKEYKCKVSNKALPAPIEKTISKAKGQPREPQVYTLPPSREEMTKNQVSLTCLVKGFYPSDIAVEWESNGQPENNYKTTPPVLDSDGSFFLTSKLTVDKSRWQQGNVFSCSVMHEALHNHYTQKSLSLSPGGGGGSGGGGSSYVLTQPSSVSVAPGQTATISCGGHNIGSKNVHWYQQRPGQSPVLVIYQDNKRPSGIPERFSGSNSGNTATLTISGTQAMDEADYYCQVWDNYSVLFGGGTKLTVLGGSGGSQVQLVQSGAEVKKPGESLKVSCKASGYTFTSYYMHWVRQAPGQGLEWMGAIEPMYGSTSYAQKFQGRVTMTRDTSTSTVYMELSSLRSEDTAVYYCARGSAYYYDFADYWGQGTLVTVSSGGSGGSGGSGGSGGSGGSSYVLTQPSSVSVAPGQTATISCGGHNIGSKNVHWYQQRPGQSPVLVIYQDNKRPSGIPERFSGSNSGNTATLTISGTQAMDEADYYCQVWDNYSVLFGGGTKLTVLGGSGGSQVQLVQSGAEVKKPGESLKVSCKASGYTFTSYYMHWVRQAPGQGLEWMGAIEPMYGSTSYAQKFQGRVTMTRDTSTSTVYMELSSLRSEDTAVYYCARGSAYYYDFADYWGQGTLVTVSSAAAGSHHHHHH
chain 2: B1 chain 2
B3: scFv-IgAb_167 (bispecific antibody)
heavy: QVQLQESGPGLVKPSETLSLTCTVSGGSVSSGSYYWSWIRQPPGKGLEWIGYIYYSGSTNYNPSLKSRVTISVDTSKNQFSLKLSSVTAADTAVYYCARNPISIPAFDIWGQGTMVTVSSASTKGPSVFPLAPSSKSTSGGTAALGCLVKDYFPEPVTVSWNSGALTSGVHTFPAVLQSSGLYSLSSVVTVPSSSLGTQTYICNVNHKPSNTKVDKKVEPKSCDKTHTCPPCPAPEFEGGPSVFLFPPKPKDTLMISRTPEVTCVVVAVSHEDPEVKFNWYVDGVEVHNAKTKPREEQYNSTYRVVSVLTVLHQDWLNGKEYKCKVSNKALPAPIEKTISKAKGQPREPQVYTLPPSREEMTKNQVSLTCLVKGFYPSDIAVEWESNGQPENNYKTTPPVLDSDGSFFLYSKLTVDKSRWQQGNVFSCSVMHEALHNHYTQKSLSLSPGGGGGSGGGGSGGGGSGGGGSGGGGSGGGGSSYVLTQPSSVSVAPGQTARITCGGNNIGSKSVHWYQQKPGQAPVLVIYQDKKRPSGIPERFSGSNSGNTATLTISGTQAMDEADYYCQVWDDYIVLFGGGTKLTVLGGSGGSGGSGGSGGSGGSGGSQVQLVQSGAEVKKPGESLKVSCKASGYTFTNYYMQWVRQAPGQGLEWMGIINPSGGVTSYAQKFQGRVTMTRDTSTSTVYMELSSLRSEDTAVYYCARGSAYYYDFADYWGQGTLVTVSS
light: QPVLTQPPSVSVAPGKTARITCGGNNIGSKSVHWYQQKPGQAPVLVIYYDSDRPSGIPERFSGSNSGNTATLTISRVEAGDEADYYCQVWDTSSDHVLFGGGTKLTVLGQPKAAPSVTLFPPSSEELQANKATLVCLISDFYPGAVTVAWKADSSPVKAGVETTTPSKQSNNKYAASSYLSLTPEQWKSHRSYSCQVTHEGSTVEKTVAPTECS

Assays:
Assay in all cases: cell-based or functional assay
[1] = biological target: T1, BCMA on MM.1S target cells
[2] = biological target: T2, EGFR on tumor target cells (MCF-7, Daudi, DK-MG, HCT-116) (UniProt P00533 25-1210, limits assumed)
[3] = biological target: T2, EGFR on tumor target cells (MCF-7, …); remark: listed apart in the source
[4] = biological target: CD16A on primary human NK cells (human, UniProt P08637 17-254)
CD16A on primary human NK cells, sequence (P08637 17-254 limits assumed): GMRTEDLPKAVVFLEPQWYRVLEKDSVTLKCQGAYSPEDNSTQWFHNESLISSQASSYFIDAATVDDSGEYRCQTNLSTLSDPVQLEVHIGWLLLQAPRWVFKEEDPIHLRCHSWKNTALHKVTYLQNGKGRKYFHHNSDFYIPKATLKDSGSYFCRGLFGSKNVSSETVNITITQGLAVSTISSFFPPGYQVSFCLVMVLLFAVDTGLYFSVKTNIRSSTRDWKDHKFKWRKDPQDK

Binder | EC50 [pM], 4 h calcein-release cytotoxicity on BCMA+ MM.1S target cells, NK cells E:T 5:1 [1] [pM] | Emax [%], 4 h calcein-release cytotoxicity on BCMA+ MM.1S target cells, NK cells E:T 5:1 [1] [%] | EC50 [pM], 4 h calcein-release cytotoxicity on MCF-7 target cells, NK cells E:T 5:1 [2] [pM] | Emax [%], 4 h calcein-release cytotoxicity on MCF-7 target cells, NK cells E:T 5:1 [2] [%] | EC50 [pM], 4 h calcein-release cytotoxicity on Daudi target cells, NK cells E:T 5:1 [3] [pM] | Emax [%], 4 h calcein-release cytotoxicity on Daudi target cells, NK cells E:T 5:1 [3] [%] | Emax [%], 4 h calcein-release NK cell fratricide assay, E:T 1:1 [4] [%]
B1 | 1 | 46.4 |  |  |  |  | 
B2 | 2.4 | 51 |  |  |  |  | 
B3 |  |  | 8.8 | 17.9 | 46.8 | 8 | 2.8
